Values joined by “and” are separate entries in the source; they are usually repeats but may differ in a detail not shown here. Equal values may be shown once.
Legend:
[1] = target: Listeria adhesion protein (LAP) (Listeria monocytogenes); assay: cryo-EM structure; LAP alone, 1.2 mg/ml, Titan Krios 300 kV with K3 detector, cryoSPARC
[2] = target: human recombinant Hsp60 (human) (UniProt P10809)
[3] = target: human recombinant Hsp60 (human) (UniProt P10809); remark: listed apart in the source
[4] = target: Listeria adhesion protein (LAP) (Listeria monocytogenes); assay: cryo-EM structure; purified LAP mixed with Hsp60 at 2:1, incubated 4 h at 4°C; Titan Krios 300 kV with K3 detector, cryoSPARC; LAP-Hsp60 map refined in C1, Hsp60 alone in C7, LAP dimer in C2

human recombinant Hsp60 (human), sequence (P10809 27-573): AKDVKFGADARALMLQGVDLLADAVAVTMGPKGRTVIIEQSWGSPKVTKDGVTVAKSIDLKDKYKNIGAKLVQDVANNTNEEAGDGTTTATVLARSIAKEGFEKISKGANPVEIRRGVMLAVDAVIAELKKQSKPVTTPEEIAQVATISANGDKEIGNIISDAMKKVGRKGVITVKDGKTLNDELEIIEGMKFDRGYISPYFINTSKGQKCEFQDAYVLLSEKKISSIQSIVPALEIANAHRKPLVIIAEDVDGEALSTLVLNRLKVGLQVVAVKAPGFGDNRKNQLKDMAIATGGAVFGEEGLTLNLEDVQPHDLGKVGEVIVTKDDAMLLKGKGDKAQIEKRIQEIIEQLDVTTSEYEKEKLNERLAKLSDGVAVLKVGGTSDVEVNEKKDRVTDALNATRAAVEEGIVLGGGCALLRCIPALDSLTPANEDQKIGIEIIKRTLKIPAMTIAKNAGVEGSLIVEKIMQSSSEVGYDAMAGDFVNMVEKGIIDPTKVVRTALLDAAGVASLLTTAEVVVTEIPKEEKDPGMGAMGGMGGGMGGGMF

Listeria adhesion protein (LAP) (natural protein)
stoichiometry N [1]: 2 and 4
FD4 paracellular flux through Caco-2 monolayers in 1 h, relative to PBS control [2]: 264%
FD4 (FITC 4-kDa dextran) permeability through Caco-2 monolayers after 1 h, LAP 0.01-5 μg/mL [3]: 80%
stoichiometry N [4]: 4 and 2

N2 subdomain of LAP (domain or fragment)
FD4 paracellular flux through Caco-2 monolayers in 1 h, relative to PBS control [2]: 149%
decrease of TEER of Caco-2 monolayers in 1 h, relative to full-length LAP (100%) [2]: 96%

N1 subdomain of LAP (domain or fragment)
FD4 paracellular flux through Caco-2 monolayers in 1 h, relative to PBS control [2]: 133%
decrease of TEER of Caco-2 monolayers in 1 h, relative to full-length LAP (100%) [2]: 78%

— publication PMC12136220
